Laboratory results published in patent publication US20200270347A1.

How the values were obtained:
Experiment in all cases: SPR, TYRP1 ECD-Fc captured with anti-PGLALA antibody, 1:1 Langmuir
[1] = target: Mouse TYRP1 ECD-Fc(knob)-Avi / Fc(hole) (mouse) [IgG part: P01857]
[2] = target: Cynomolgus TYRP1 ECD-Fc(knob)-Avi / Fc(hole) (cynomolgus) [IgG part: P01857]
[3] = target: Human TYRP1 ECD-Fc(knob)-Avi / Fc(hole) (human) [IgG part: P01857]

Kd [1]: 0.31 nM
Kd [2]: 0.12 nM
Kd [3]: 0.09 nM
Substance: parental TA99 antibody (Fab)
